Patent US20260193370A1 (SUZHOU SUNCADIA BIOPHARMACEUTICALS, published 2026)

What was measured:
[1] = target: T1, human NGF protein (Sino biological, 11050-HNAC) (human, UniProt P01138 122-241); assay: cell-based or functional assay
[2] = target: T1, human NGF protein (Sino biological, …); assay: cell-based or functional assay; remark: listed apart in the source

T1 sequence (P01138 122-241 limits assumed): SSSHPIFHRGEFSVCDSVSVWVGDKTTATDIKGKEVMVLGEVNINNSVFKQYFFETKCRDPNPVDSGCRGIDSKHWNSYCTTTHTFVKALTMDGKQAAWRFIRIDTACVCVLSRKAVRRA

B1: Tanezumab (antibody, human IgG2, kappa, V domains shown)
VH: QVQLQESGPGLVKPSETLSLTCTVSGFSLIGYDLNWIRQPPGKGLEWIGIIWGDGTTDYNSAVKSRVTISKDTSKNQFSLKLSSVTAADTAVYYCARGGYWYATSYYFDYWGQGTLVTVSS
VL: DIQMTQSPSSLSASVGDRVTITCRASQSISNNLNWYQQKPGKAPKLLIYYTSRFHSGVPSRFSGSGSGTDFTFTISSLQPEDIATYYCQQEHTLPYTFGQGTKLEIKR
TF-1 cell proliferation-inhibiting activity, IC50 (TF-1 cells with human NGF, Cell-titer Glo) [1]: 759 pM | TF-1 cell proliferation-inhibiting activity, fold relative to bispecific antibody 1 [2]: ~4.2 fold
